Measured values from patent US20050147614A1 (CANCER RESEARCH TECHNOLOGY, published 2005).
Where “and” joins values, the source holds several entries; their conditions need not be identical. Identical values can stand only once.

Tests used:
[1] = biological target: carcinoembryonic antigen (CEA) (UniProt P06731); assay: off-rate analysis on the yeast surface at 37 C
[2] = biological target: T1, carcinoembryonic antigen (CEA) (UniProt P06731 35-685, limits assumed, biotinylated (labelled form); unlabelled CEA (Calbiochem) used as competitor in the off-rate assays); assay: yeast surface display, equilibrium titration with biotinylated CEA, flow cytometry, 37 C
T1 construct: also called biotinylated-CEA; bio-CEA
T1 sequence (looked up): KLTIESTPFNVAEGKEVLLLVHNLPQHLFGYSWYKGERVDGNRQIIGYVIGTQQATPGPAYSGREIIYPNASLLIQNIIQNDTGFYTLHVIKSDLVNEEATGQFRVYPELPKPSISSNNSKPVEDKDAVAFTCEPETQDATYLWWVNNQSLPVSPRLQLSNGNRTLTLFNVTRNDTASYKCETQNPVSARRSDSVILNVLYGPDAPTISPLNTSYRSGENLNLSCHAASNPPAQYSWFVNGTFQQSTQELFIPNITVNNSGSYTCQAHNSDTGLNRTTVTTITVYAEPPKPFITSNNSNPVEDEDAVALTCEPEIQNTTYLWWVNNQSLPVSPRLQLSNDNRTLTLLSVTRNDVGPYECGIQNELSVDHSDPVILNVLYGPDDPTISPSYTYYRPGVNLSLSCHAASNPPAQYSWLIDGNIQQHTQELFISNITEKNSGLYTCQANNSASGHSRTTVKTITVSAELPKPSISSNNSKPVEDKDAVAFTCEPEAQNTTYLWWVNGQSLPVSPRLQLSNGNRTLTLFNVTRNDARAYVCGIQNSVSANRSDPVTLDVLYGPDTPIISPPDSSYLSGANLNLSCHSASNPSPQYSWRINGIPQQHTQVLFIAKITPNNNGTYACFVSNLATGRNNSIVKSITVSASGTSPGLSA
Protocol: Equilibrium binding constants KD for CEA at 37° C. A) Plot of CEA binding (measured fluorescence) versus CEA concentration. B) CEA binding (normalized for different display levels) versus CEA concentration. […] C) Soluble production of MFE-23 (1) and hMFE (2) at 37° C. for 48 hours. Additional lanes are the scFvs produced at 37° C. and 20° C. for varying amounts of time.

[3] = biological target: T1, carcinoembryonic antigen (CEA); assay: yeast surface display, dissociation of biotinylated CEA in excess unlabelled CEA, flow cytometry
Protocol: Binding analysis of clones isolated from aggressive hMFE Library sort. A) Equilibrium Titration (Example 3). hMFE (kD±8.5±0.5 nM) (●), m9B (kD=0.8±0.1 nM) (▪), m10B (kD=0.08±0.01 nM) (♦)B). Off-rate. Dissociation rates were measured by first labeling yeast displaying the scFv of interest with biotinylated CEA. Then, the labeled cells were washed and incubated with an excess of nonbiotinylated CEA. Dissociation of labeled CEA from the cells was followed at the single cell level by flow cytometry and streptavidin-PE labeling, as described in Example 3. hMFE (koff=1.2±0.1×10⁻³ s⁻¹) (●), m9B (koff=7.5±0.4×10⁻⁵ s⁻¹) (▪), m10B (koff=6.0±0.4×10⁻⁶ s⁻¹) (♦).

[4] = biological target: T1, carcinoembryonic antigen (CEA); assay: yeast surface display, off-rate analysis
[5] = biological target: T1, carcinoembryonic antigen (CEA); assay: off-rate analysis on the yeast surface at 37 C
[6] = biological target: T1, carcinoembryonic antigen (CEA); assay: yeast surface display, dissociation of biotinylated CEA in 100-fold excess unlabelled CEA at 37 C, flow cytometry
[7] = biological target: T1, carcinoembryonic antigen (CEA); assay: yeast surface display, equilibrium titration with biotinylated CEA, flow cytometry
[8] = biological target: T1, carcinoembryonic antigen (CEA); assay: yeast surface display, equilibrium titration with biotinylated CEA
[9] = biological target: T1, carcinoembryonic antigen (CEA); assay: yeast surface display, off-rate analysis with biotinylated CEA and excess unlabelled CEA, flow cytometry

Molecule: sm3E+T98A (scFv)
- koff [1]: 1.2e-06 s⁻¹

B1: MFE-23 scFv (scFv)
scFv: QVKLQQSGAELVRSGTSVKLSCTASGFNIKDSYMHWLRQGPEQGLEWIGWIDPENGDTEYAPKFQGKATFTTDTSSNTAYLQLSSLTSEDTAVYYCNEGTPTGPYYFDYWGQGTTVTVSSGGGGSGGGGSGGGGSENVLTQSPAIMSASPGEKVTITCSASSSVSYMHWFQQKPGTSPKLWIYSTSNLASGVPARFSGSGSGTSYSLTISRMEAEDAATYYCQQRSSYPLTFGAGTKLELKRAA
notes: Tested on the yeast surface as an Aga2p fusion in pCTCON, with an HA tag N-terminal and a c-myc tag C-terminal of the scFv
- Kd [2]: 8.3 nM and 7.5 nM

B2: humanized MFE-23 (hMFE) scFv (scFv)
scFv: PYDVPDYALQASGGGGSGGGGSGGGGSASQVKLEQSGAEVVKPGASVKLSCKASGFNIKDSYMHWLRQGPGQRLEWIGWIDPENGDTEYAPKFQGKATFTTDTSANTAYLGLSSLRPEDTAVYYCNEGTPTGPYYFDYWGQGTLVTVSSGGGGSGGGGSGGGGSENVLTQSPSSMSASVGDRVNIACSASSSVSYMHWFQQKPGKSPKLWIYSTSNLASGVPSRFSGSGSGTDYSLTISSMQPEDAATYYCQQRSSYPLTFGGGTKLEIKAAAGSEQKLISEEDL
notes: also called hMFE-23; resurfaced scFv
- koff [3]: 0.0012 s⁻¹
- Kd [2]: 8.3 nM and 8.5 nM
- half-life for binding to CEA [4]: 0.167 h
- koff [5]: 0.0009 s⁻¹

B3: sm10B+T98A (scFv)
chain: PYDVPDYALQASGGGGSGGGGSGGGGSASQVKLEQSGAEVVKPGASVKLSCKASGFNIKDSYMHWLRQGPGQRLEWIGWIDPENGDTEYAPKFQGKATFTTDTSANTAYLGLSSLRPEDTAVYYCNEGTPAGPYYFDYWGQGTLVTVSSGGGGSGGGGSGGGGSENVLTQSPSSMSASVGDRVTIACSASSSVPYMHWFQQKPGKSPKLLIYLTSNLASGVPSRFSGSGSGTDYSLTISSVQPEDAATYYCQQRSSYPLTFGGGTKLEIKAAAGSEQKLISEEDL
- koff [5]: 6.8e-06 s⁻¹

B4: m8E (scFv)
chain: PYDVPDYALQASGGGGSGGGGSGGGGSASQVKLEQSGAEVVKPGASVKLSCKASGFNIKDSYMHWLRQGPGQRLEWIGWIDPQNGDTEYAPKFQGKATFTTDTSANTAYLGLSSLRPEDTAVYYCNEGTPAGPYYFDYWGQGTLVTVSSGGGGSGGGGSGGGGSENVLTQSPSSMSASVGDRVNIACSASSSVSYMHWFQQKPGKSPKLWIYLTSNLAPGVPSRFSGSGSGTDYSLTISSMQPEDAATYYCQQRSSYPLTFGGGTKLEIKAAAGSEQKLISEEDL
- koff [6]: 2.6e-06 s⁻¹

B5: m3E (scFv)
chain: PYDVPDYALQASGGGGSGGGGSGGGGSASQVKLEQSGAEVVKPGASVKLSCKASGFNIKDSYMHWLRQGPGQRLEWIGWIDPENGDTEYAPKFQGKATFTTDTSANTAYLGLSSLRPEDTAVYYCNEGTPTGPYYFDYWGQGTLVTVSSGGGGSGGGGSGGGGSENVLTQSPSSMSASVGDRVNIACSASSSVSYMHWLQQKPGKSPKLWIYLTSNLASGVPSRFSGSGSGTDYSLTISSMQPEDAATYYCQQRSSYPLTFGGGTKLEIKAAAGSEQKLISEEDL
- half-life for binding to CEA [4]: ~168 h
- koff [6]: 1.2e-06 s⁻¹

B6: m7E (scFv)
chain: PYDVPDYALQASGGGGSGGGGSGGGGSASQVKLEQSGAEVVKPGASVKLSCKASGFNIKDSYMHWLRQGPGQRLEWIGWIDPENGDTEYAPKFQGKATFTTDTSANTAYLGLSSLRPEDTAVYYCNEGTPTGPYYFDYWGQGTLVTVSSGGGGSGGGGSGGGGSENVLTQSPSSMSASVGDRVNIACNASSSVSYMHWLQQKPGKSPKLWIYLTSNLAPGVPSRFSGSGSGTDYSLTISSMQPEDAATYYCQQRSSYPLTFGGGTKLEIKAAAGSEQKLISEEDL
- koff [6]: 1.8e-06 s⁻¹

B7: m10B (scFv)
chain: PYDVPDYALQASGGGGSGGGGSGGGGSASQVKLEQSGAEVVKPGASVKLSCKASGFNIKDSYMHWLRQGPGQRLEWIGWIDPENGDTEYAPKFQGKATFTTDTSANTAYLGLSSLRPEDTAVYYCNEGTPTGPYYFDYWGQGTLVTVSSGGGGSGGGGSGGGGSENVLTQSPSSMSASVGDRVNIACSASSSVSYMHWFQQKPGKSPKLWIYLTSNLASGVPSRFSGSGSGTDYSLTISSMQPEDAATYYCQQRSSYPLTFGGGTKLEIKAAAGSEQKLISEEDL
- koff [3]: 6e-06 s⁻¹
- fold improvement in the off-rate over hMFE [4]: 200 fold
- Kd [7]: 0.08 nM
- fold improvement in the affinity over hMFE [8]: 100 fold

B8: hMFE+T98A (scFv)
chain: PYDVPDYALQASGGGGSGGGGSGGGGSASQVKLEQSGAEVVKPGASVKLSCKASGFNIKDSYMHWLRQGPGQRLEWIGWIDPENGDTEYAPKFQGKATFTTDTSANTAYLGLSSLRPEDTAVYYCNEGTPAGPYYFDYWGQGTLVTVSSGGGGSGGGGSGGGGSENVLTQSPSSMSASVGDRVNIACSASSSVSYMHWFQQKPGKSPKLWIYSTSNLASGVPSRFSGSGSGTDYSLTISSMQPEDAATYYCQQRSSYPLTFGGGTKLEIKAAAGSEQKLISEEDL
- fold improvement in off-rate over hMFE [5]: 1.5 fold
- koff [5]: 0.0006 s⁻¹

B9: sm9B (scFv)
chain: PYDVPDYALQASGGGGSGGGGSGGGGSASQVKLEQSGAEVVKPGASVKLSCKASGFNIKDSYMHWLRQGPGQRLEWIGWIDPENGDTEYAPKFQGKATFTTDTSANTAYLGLSSLRPEDTAVYYCNEGTPTGPYYFDYWGQGTLVTVSSGGGGSGGGGSGGGGSENVLTQSPSSMSASVGDRVTIACSASSSVPYMHWLQQKPGKSPKLLIYSTSNLASGVPSRFSGSGSGTDYSLTISSVQPEDAATYYCQQRSSYPLTFGGGTKLEIKAAAGSEQKLISEEDL
- koff [9]: 0.00011 s⁻¹

B10: m9B (scFv)
chain: PYDVPDYALQASGGGGSGGGGSGGGGSASQVKLEQSGAEVVKPGASVKLSCKASGFNIKDSYMHWLRQGPGQRLEWIGWIDPENGDTEYAPKFQGKATFTTDTSANTAYLGLSSLRPEDTAVYYCNEGTPTGPYYFDYWGQGTLVTVSSGGGGSGGGGSGGGGSENVLTQSPSSMSASVGDRVNIACSASSSVSYMHWLQQKPGKSPKLWIYSTSNLASGVPSRFSGSGSGTDYSLTISSMQPEDAATYYCQQRSSYPLTFGGGTKLEIKAAAGSEQKLISEEDL
- koff [3]: 7.5e-05 s⁻¹
- fold improvement in the off-rate over hMFE [4]: 16 fold
- Kd [7]: 0.8 nM
- fold improvement in the dissociation constant over hMFE [8]: 10 fold

B11: sm10B (scFv)
chain: PYDVPDYALQASGGGGSGGGGSGGGGSASQVKLEQSGAEVVKPGASVKLSCKASGFNIKDSYMHWLRQGPGQRLEWIGWIDPENGDTEYAPKFQGKATFTTDTSANTAYLGLSSLRPEDTAVYYCNEGTPTGPYYFDYWGQGTLVTVSSGGGGSGGGGSGGGGSENVLTQSPSSMSASVGDRVTIACSASSSVPYMHWFQQKPGKSPKLLIYLTSNLASGVPSRFSGSGSGTDYSLTISSVQPEDAATYYCQQRSSYPLTFGGGTKLEIKAAAGSEQKLISEEDL
- koff [9]: 8.3e-06 s⁻¹
- koff [5]: 8.2e-06 s⁻¹
